# Experimental data published in the DeepSol protein solubility set.
# Experiment: soluble on expression in E. coli; label from the status in PepcDB or PDB records
row,Sequence,soluble on expression in E. coli
1,MGSDKIHHHHHHMPANDFVSPDSIRAQFSAAMSLMYKQEVPLYGTLLELVSEINQQVMAQQPEVAEALRWTGEIERLDQERHGAIRVGTAEELATIARLFAVMGMQPVGYYDLSSAGVPVHSTAFRAVHEQSLHVSPFRVFTSLLRLELIDNPQLRELAQSILAKRQIFTSRALELIAQCEREGGLDAADAETFVQEALHTFRWHQDATVTAEQYQQLHDQHRLIADVVAFKGPHINHLTPRTLDIDAIQLGMPAKGIPPKAVVEGPPTRRHPILLRQTSFKALQETVAFRDQQGREGSHTARFGEIEQRGAALTPKGRQLYDKLLDATRVALGGAPAEANAERYMALLQANFAEFPDDLAQMREQGLAYFRYFATEKGLAARDQEGRPTTLQGLIDAGHVHFEALVYEDFLPVSAAGIFQSNLGDDAQAEYGSNANREAFEAALGLQVQDELALYAQSERRSLQACAQALNLGSM,not soluble
2,MSLMKQNPILITGGTGTVGSRIASRLIKLGYRVRIASRKKGALADAEYVYFNWKYASSFTPALEQVKQIYLVAPVGVFDPAPYVLPFLKEAKRLGAKRVVMQSASVVSENGPVFGALHQAVREFPEWTVLRPSYFMQNFINVQHRMSIQTEGRITTASGEGKLGFIDADDIAETAVRALIDDVPHQTHHILTGPEALSYAEAAEIIGAAAGRRVEHVSISRSELQHKMEAGGLPADYAHFMAKLDEAISHGAEHRVTDTVKRVTGKEPRSLSEFAAAHAAYWTSFWTEEGGSHHHHHH,soluble
3,PKLSQDEIDDLKDVFELFAFWDGRDGAVDAFKLGDVCRCLGINPRNEDVFAVGGTHKMGEKSLPFEEFLPAYEGLMDCEQGTFADYMEAFKTFDREGQGFISGAELRHVLTALGERLSDEDVDEIIKLTDLQEDLEGNVKYEDFVKKVMAGPYPDK,soluble
4,MGSDKIHHHHHHMSTKHSKAAAEFLKNKKQAAWHDETLWLVRAKRDRLSKEVPEWEELRNMACATKLYSNSHLDELLVEFENNARANGAHVYWAKDADEYCNIVYNILNQHGVKHFIKSKSMLAEECELNPFLESKGIEVVESDLGERILQLMHLKPSHIVLPAIHIKREQVGELFEREMGTEKGNFDPTYLTHAARKNLRQKFIHAEAAMTGANFAVASTGEIVVCTNEGNADMGTSQPKLQIAAFGMEKIVPDRESLGVFTRLLARSATGQPITTYTSHYRKPREGGELHIIIVDNGRSKILADPKHIKTLNCIRCGACMNTCPVYRRSGGYSYTYFIPGPIGINLGMLKAPLHYYDNVSACSLCYSCSFVCPAKVDLAEQIYLWRQDLDKLGKADRMKKVMSGGMEFMMKRPSIFNMALKWAPLVNGVPRFLIYNGLNDWGKGREMPKFAKESFNEMWKKGKVK,not soluble
5,MGSDKIHHHHHHMAGKLFIVILTPVCNGNCLYCGGYDEGLMPPKIQYPLESLKKIADGNSVAFYGGEPLLEMEKMKEIMDSVKAEHFILQTNGLKLNRLEDEYIRRFSTILVSFDGRREVHDLYRGNYERVLENVLNVRRKGFEGELIARMVASQETDIYEDVMHILNLDCFTHVHWQIDAVWSSDGVWRDFERWVERYNAGVRKLVKFWASELRKGVLHGLVPFMGVATAIFKPFTHPPCSSGFESFAIATDGRILACPICPDLDWNEVGSLDEGIKRRLEILEPCLSCSYFRFCGGRCVFFNRERLWGDRGFRLVCSTVKNLVDSILACKHLILANKEKIMYPRFLNTTEIIP,not soluble
6,MWRAKKPTLERRSTDGRRSSIVDWINGLSDNNNYKSDHWVEKHDEGCERMTRNGSVCAVEESEPDVPTQHREVLLTKLKIEIKNIMAEHGAKKYLNLNSPYVTSLCIAVDACIMDGLRRRLLTLFNSPSSMSLLQIIAKSNGPAQQVLDQTREIEELRTSAIPVHLIWIREALYLKSLSTIINHFIDSKSVRRYYDNSALLLDPVKGRLVATLMMAPCMVTYRRMSNRIEQEATAEELVEGATRGSTSTVPSRPPLSKIKKIHFLDNPSSYMSLQKFYDGNLSLKWVPNQLMHASSQPSSGHSNNGEFTNIWKNTINIEMQDIIYIHLHQKDEISPTCLTFVNCEGVQSAPFQLPAGQHSIAFLSSLETGLAPLLRLDPPLWVGTTKEKILPRLRKRSTAVANPAMLDYVFRLVRTSGVEPAPEDIEDPLAPTSHSPPIHDNCVSLPNSPYIVDNVDSIVNFQIGTACQSMRNQIMARAFYGWLTYVRHLRTIRTHLLHLVDTKTLICDDDCDPVDEKFWKQARAEPTEENEKEFLKRVYWRGIEGINTKEVRRMAWPYLLGLFEWNESPESRLEQFTSQYWQDIEEWRVLEAEVRRRDEEAFRAARARKAASPVREESCDVFEDPNEPTCSQHYDRENLITLFRANLHRIDKDVERCDRNLMFFSNKDNLESLRRVMYTYVRRNLEEGYTQGMCDLLAPLLVTFEDEALTLECFSLLMLRQRGKFPQRPGMSKCLLNLRSLIQVVDPQIYALISDIDYAQALSFAFRWFLLDFKRELSYECTYKVWEVIWAAQRLRITDDFAIFFGLATITNYHDVLITNNFDYTDMIKFFNEMAERHDCSRLLSSARTHVKCLQNLVQHLK,soluble
7,SNAMNHSRESYDRLARELGGYRHPWARVLSGPDPELTFDLWLSRLLTPQTRVLEAGCGHGPDAARFGPQAARWAAYDFSPELLKLARANAPHADVYEWNGKGELPAGLGAPFGLIVSRRGPTSVILRLPELAAPDAHFLYVGPRLNVPEVPERLAAVGWDIVAEDHVSVLAHAPTWEDWQMRGEFMGKLARRADWDAEATVRGMPYREERHLVLARQLGVARKLGA,soluble
8,GPLGSMDAKARNCLLQHREALEKDIKTSYIMDHMISDGFLTISEEEKVRNEPTQQQRAAMLIKMILKKDNDSYVSFYNALLHEGYKDLAALLHDGIPVVSSS,soluble
9,MPRWRSAVEGLMLNRVVEQLTAQLPARNLGWVFPDETTAALLLDGPDGQPLGNLVLGYRPPQPVLFLSRERLRGDPHNPFQRLLATRVRGELLKIEQFKLDRVVALHFGPAEGFIDQPPARLLFEVTGRNANLLVMEEGEGFAGRITLAAREITGSRNRFRTIRSGGPYTPPPPYDKFDPRTMTPADAQTLAGVPLSEWRGRVDGLGPMLSAELARRAEMRPSQAPGDDWERAYDALKSLVADPSVSEGTLSEGAREAARQEKAGALRKLLREPLEKRVTLLENQLGDVTRAEEGVEIAAQDRAEADLLMAYAQTVEPGAASALLPSFDGEGEVPVSLEPQLSAVQNAEKRYARARRRDEVYLRLAEREGSIRSELEAARERLHRLDHAELEQLEQLASDLEREKPERS,not soluble
10,MTAPSLDNWEKRKRFVELPRKRQMAFIDTGGPGPVLLMLHGFSDTSRSFSIIEPYFQEYRLIAPDLPGHGASSVGHGFHVADFAETIDRFLTLMGVSRFFVLGHSMGAMTAIELAARRSSSVRGLALISGTLEPDFGTESKLARDILALRDPIKPAGGFLHDWYSCSRPVNEEFLFRMKRDAANMAATTWHGVLKAFAETDLHYSASKINVPVLCLAGSEDPLFDDSHRQQLFEAFPLAQTVTMPGHGHNPHWENPQGVSTLVTEFFAEVMTDASPVRVETAADKR,not soluble
11,RTCRIHEISCGAHSTQCIPVSWRCDGENDCDSGEDEENCGN,soluble
12,MGGASSPRIPSRRSAPYFTSLAFFGSSYIKVKNNRNKMLNPTDAASVALSFSVPFQMSGENPLSKLVEHCNKFVPGADIKMKAEPAKPESLLLPTDMNAYSPYLATPNWWVDQTGWPQLYPTVTTASSVDVYQNYLASSQLGGLLSSSVSAVASQLPAGINAQSALNITSQQRTIAKSFQHTKPMASSSSIPSVLTASNSSANSLVSSGSESVSARGTSGSGGTGKYPSSRTANKCECPNCHEIEKFGPNAIAARKRGVHNCHIAGCGKVYNKSSHLKAHLRWHSGERQMKKRSGDSS,not soluble
13,MKRGKQTCKILKDIRRQIAEANDIEFITSECQYQGDCLGTCPKCEAEVRYLEQQLERKRMAGKAITILGISAGLVAMAPMTSCSSSPNKGTNQETISDSTNASVMFGEICPTPVEDTIPMVEKDTVNKQELPELPQEMGLIEITPISGDIITVKDSLSEKDSLTDVLEVAAVMPEFPGGARELMKFISANIRYPSMSQGGVCQGRAIVQFIVDKEGNIVQPKVVRGVDPYLDKEALRVVGLMPKWKPGELDDGTKVAVRFTIPVMFRLQ,not soluble
14,MTMTMSYKAIEKIPRCSWNREEPGEQWNKIYSVETGLLGTYSFEWQSQVANKTMRKRNTNSICGRQHEPHCPVSITRAIAQPQLLTFPDSLASRGGHMTQSGQCHVSGSLLGRGHKSRGR,soluble
15,GPGSMEDYKAKGNDAFKAKRYQEAIDWYTKAIELDPNGEASGALYSNRAGSWQNLNNFEKAAADSEQCIRLRPDWLKGYFRLGVAMESMVKYDEAQKAFQKALQLSPGNEEVMDKLHAINTKVRERNEKTKSQQCKTPEEAKQLGNSFFKDGKYDQAAEFYTRAIELQTEPVKEKAVYYTNRAACHQQTHMYSLMVDDCNAAIEIDPANVKAYLRRGIAYEGMEKWKLALEDYTKAQSISPGVAGASQGILRCQRVLRS,soluble
16,MTSFSLIATAAMGLESVVAEEVRRLGYECQVENGKVTFEGDALAICRANLWLRTADRVKLKVGEFRATTFEELFEQTKALPWADYLPKDAEFPVIGKSVKSTLFSVSDCQAIVKKAVVESLKARYHLSWFPETGPLYRIEVALHKDIATLTIDTSGAGLHKRGYRARQGEAPLRETLAAALVLLTNWTPDRPFVDPFCGSGTIAIEAALIGQNIAPGFNRDFVSEQWPWIGESVWEEARQEAEQMARYDQPLDICGIDLDPHMVEIAKMNAAEAGLSDLISFREGRAEQFRTDAQYGVIVGNPPYGERLGEQREVEALYRAIGRAFAALDTWSVYILTAHRGFETHYGRPATKRRKLFNGFIETHYYQYWGPRPPREARS,not soluble
17,GSHMATEPKAGRPSDYMPEVADDICSLLSSGESLLKVCKRPGMPDKSTVFRWLAKHEDFRDKYAKATEARADSIFEEIFEIADNAIPDAAEVAKARLRVDTRKWALARMNPRKYGDKVTNELVGKDGGAIQIETSPMSTLFGK,soluble
18,MGSDKIHHHHHHMANFSYEVFSKVVERGTLAKAAAELNVTPSAVSHSVSQLETELGFPLLIRNRTGVALTEDGAQVLPIIQSIQNLEEQLTQVADNINGVNTGRIRIGAFSSVSTNWLPTIIRRFKKRYPHIEISVVQGTFNRIVEAVRLGTADIGFSSLPVGPGVVVEPLLKDPIYCITAKQFKPKNGRTVTQADVDKQNFILQQIDYDRDTKNALDRYHVSSNAINYSIDDQSILSMVESGLGMGILPKLAVQKLVGDVNMYPFSEPFERTLCLVINPTIKKSPSVQRMQQVIHSFLAETYGEAFLGHQG,not soluble
19,MAAAAAGAGSGPWAAQEKQFPPALLSFFIYNPRFGPREGQEENKILFYHPNEVEKNEKIRNVGLCEAIVQFTRTFSPSKPAKSLHTQKNRQFFNEPEENFWMVMVVRNPIIEKQSKDGKPVIEYQEEELLDKVYSSVLRQCYSMYKLFNGTFLKAMEDGGVKLLKERLEKFFHRYLQTLHLQSCDLLDIFGGISFFPLDKMTYLKIQSFINRMEESLNIVKYTAFLYNDQLIWSGLEQDDMRILYKYLTTSLFPRHIEPELAGRDSPIRAEMPGNLQHYGRFLTGPLNLNDPDAKCRFPKIFVNTDDTYEELHLIVYKAMSAAVCFMIDASVHPTLDFCRRLDSIVGPQLTVLASDICEQFNINKRMSGSEKEPQFKFIYFNHMNLAEKSTVHMRKTPSVSLTSVHPDLMKILGDINSDFTRVDEDEEIIVKAMSDYWVVGKKSDRRELYVILNQKNANLIEVNEEVKKLCATQFNNIFFLD,soluble
20,GPLGSDHVLHVTFPKEWKTSDLYQLFSAFGNIQISWIDDTSAFVSLSQPEQVKIAVNTSKYAESYRIQTYAEYMGRKQEEKQIKRKWTEDSWKEADSKRLN,soluble
